Test results published in patent publication US20250289905A1 (MIRIMGENE, published 2025).

Experiments:
[1] = biological target: marmoset (NHP)-derived WARS1 recombinant protein (marmoset (NHP)) (UniProt U3CR73); assay: direct ELISA
[2] = biological target: T1, human WARS1 recombinant protein (human, UniProt P23381 2-471, limits assumed); assay: cell-based or functional assay
T1 sequence: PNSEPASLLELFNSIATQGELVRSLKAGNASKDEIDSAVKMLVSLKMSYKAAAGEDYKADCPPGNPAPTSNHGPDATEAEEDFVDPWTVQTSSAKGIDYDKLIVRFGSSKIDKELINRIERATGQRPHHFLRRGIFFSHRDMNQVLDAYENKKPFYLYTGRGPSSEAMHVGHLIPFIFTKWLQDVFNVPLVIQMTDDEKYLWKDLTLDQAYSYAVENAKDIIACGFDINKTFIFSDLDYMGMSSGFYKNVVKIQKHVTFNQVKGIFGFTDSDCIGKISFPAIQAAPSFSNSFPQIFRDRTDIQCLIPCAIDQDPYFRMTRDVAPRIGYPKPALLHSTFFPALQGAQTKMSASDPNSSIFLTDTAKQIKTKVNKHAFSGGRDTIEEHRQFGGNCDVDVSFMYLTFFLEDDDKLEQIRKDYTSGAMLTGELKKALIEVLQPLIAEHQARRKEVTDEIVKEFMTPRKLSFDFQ

[3] = biological target: T1, human WARS1 recombinant protein; assay: direct ELISA
Procedure: (§1) Specifically, for direct ELISA, a 96-well plate (Maxisorp, Thermo Fisher) was coated with WARS1 having a 1 μg/ml concentration of a recombinant protein derived from human, marmoset (NHP), mouse, rat, and pig, and then blocked with PBS containing 1% BSA at room temperature for 1 hour. The GKB101 antibody or a variant antibody thereof was diluted in a concentration-dependent manner, added to each coated well, reacted at room temperature for 1 hour, and then washed four times with PBST (PBS+Tween20). Each well was treated and reacted for 1 hour with an antibody (anti-Human IgG, cell signaling) to which HRP is attached, and then washed with PBST. Lastly, after developing with a TMB substrate (BD), its absorbance was measured at 490 nm (NIVO) (FIGS. 4a to 5).

[4] = biological target: T2, rat-derived WARS1 recombinant protein (rat, UniProt Q6P7B0 1-481, limits assumed); assay: direct ELISA
T2 construct: Recombinant, His-tagged (detected with anti-His tag antibody); construct not described; also called rat WARS1
T2 sequence (looked up): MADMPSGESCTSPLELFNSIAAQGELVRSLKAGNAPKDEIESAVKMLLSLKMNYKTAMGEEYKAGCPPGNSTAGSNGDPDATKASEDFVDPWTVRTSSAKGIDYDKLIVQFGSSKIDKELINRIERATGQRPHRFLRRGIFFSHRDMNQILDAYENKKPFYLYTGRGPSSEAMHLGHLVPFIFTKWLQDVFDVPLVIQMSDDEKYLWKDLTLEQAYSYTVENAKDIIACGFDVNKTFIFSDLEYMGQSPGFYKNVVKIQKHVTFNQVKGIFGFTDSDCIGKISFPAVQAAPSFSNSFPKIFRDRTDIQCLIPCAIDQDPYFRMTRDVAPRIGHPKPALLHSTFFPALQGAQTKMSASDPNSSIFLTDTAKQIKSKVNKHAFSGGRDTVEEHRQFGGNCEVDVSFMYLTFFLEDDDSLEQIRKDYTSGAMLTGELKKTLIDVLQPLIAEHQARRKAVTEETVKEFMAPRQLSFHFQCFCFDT
Procedure: as §1

[5] = biological target: T3, mouse-derived WARS1 recombinant protein (mouse, UniProt P32921 1-481, limits assumed); assay: direct ELISA
T3 construct: Recombinant, His-tagged (detected with anti-His tag antibody); construct not described; In the western blot also secreted WARS1 from J774A.1 supernatant and mouse serum; also called mouse WARS1
T3 sequence (looked up): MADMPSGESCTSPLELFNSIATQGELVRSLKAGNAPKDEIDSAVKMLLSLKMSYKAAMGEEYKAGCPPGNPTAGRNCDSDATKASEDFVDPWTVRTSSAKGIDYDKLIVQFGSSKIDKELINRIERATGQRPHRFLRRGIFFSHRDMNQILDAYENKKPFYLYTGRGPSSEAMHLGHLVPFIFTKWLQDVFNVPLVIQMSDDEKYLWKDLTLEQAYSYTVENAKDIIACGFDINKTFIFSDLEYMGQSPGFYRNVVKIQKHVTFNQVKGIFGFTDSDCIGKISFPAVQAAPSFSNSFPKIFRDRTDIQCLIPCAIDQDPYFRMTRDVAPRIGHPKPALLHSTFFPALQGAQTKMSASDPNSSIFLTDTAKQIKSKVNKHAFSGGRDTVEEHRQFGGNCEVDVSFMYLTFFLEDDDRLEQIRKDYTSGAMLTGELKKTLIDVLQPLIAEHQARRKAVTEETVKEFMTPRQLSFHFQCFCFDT
Procedure: as §1

B1: SHL/QLN (antibody, V domains shown)
VH: EVQLLESGGGLVQPGGSLRLSCAASGFTFSSYDMSWVRQAPGKGLEWVSAISSGGSSIYYADSVKGRFTISRDNSKNTLYLQMNSLRAEDTAVYYCARDVAWDMLGDFDYWGQGTLVTVSS
VL: QSVLTQPPSASGTPGQRVTISCTGSSSNIGSNYVYWYQQLPGTAPKLLIYANQLRPSGVPDRFSGSKSGTSASLAISGLRSEDEADYYCGAWDDSNSAYVFGGGTKLTVLT
notes: L-CDR2 and L-CDR3 variant of GKB101; also called SHL/QLN antibody
Kd [1]: 1 pM
secretion of TNF-α in mouse macrophage J774A.1 cells [2]: ≥ 40%
Kd [3]: ~1 pM
Kd [4]: ~1 pM
Kd [5]: ~1 pM
